Source: publication PMC4357396

Target: biotinylated HLA-A*0201-…
Experiment: SPR; BIAcore T100, CM5 chip; A2-EAA on the chip, MEL5 injected (ten serial dilutions, 45 uL/min); KDs by equilibrium analysis in triplicate at 5, 10, 15, 20, 25 and 30°C, nonlinear van't Hoff fit with T0 = 298 K; 10 mM HEPES pH 7.4, 150 mM NaCl, 3 mM EDTA, 0.005% P20; HLA-A*0201-… as negative control surface

MEL5 TCR
dH: -14 kcal/mol
